Measured values as given in PMC11976907 (Nature Communications, 2025).

Biological target: T1, human TEX10 (43-929), His6-MBP fusion (human, UniProt Q9NXF1 43-929)
T1 sequence (looked up): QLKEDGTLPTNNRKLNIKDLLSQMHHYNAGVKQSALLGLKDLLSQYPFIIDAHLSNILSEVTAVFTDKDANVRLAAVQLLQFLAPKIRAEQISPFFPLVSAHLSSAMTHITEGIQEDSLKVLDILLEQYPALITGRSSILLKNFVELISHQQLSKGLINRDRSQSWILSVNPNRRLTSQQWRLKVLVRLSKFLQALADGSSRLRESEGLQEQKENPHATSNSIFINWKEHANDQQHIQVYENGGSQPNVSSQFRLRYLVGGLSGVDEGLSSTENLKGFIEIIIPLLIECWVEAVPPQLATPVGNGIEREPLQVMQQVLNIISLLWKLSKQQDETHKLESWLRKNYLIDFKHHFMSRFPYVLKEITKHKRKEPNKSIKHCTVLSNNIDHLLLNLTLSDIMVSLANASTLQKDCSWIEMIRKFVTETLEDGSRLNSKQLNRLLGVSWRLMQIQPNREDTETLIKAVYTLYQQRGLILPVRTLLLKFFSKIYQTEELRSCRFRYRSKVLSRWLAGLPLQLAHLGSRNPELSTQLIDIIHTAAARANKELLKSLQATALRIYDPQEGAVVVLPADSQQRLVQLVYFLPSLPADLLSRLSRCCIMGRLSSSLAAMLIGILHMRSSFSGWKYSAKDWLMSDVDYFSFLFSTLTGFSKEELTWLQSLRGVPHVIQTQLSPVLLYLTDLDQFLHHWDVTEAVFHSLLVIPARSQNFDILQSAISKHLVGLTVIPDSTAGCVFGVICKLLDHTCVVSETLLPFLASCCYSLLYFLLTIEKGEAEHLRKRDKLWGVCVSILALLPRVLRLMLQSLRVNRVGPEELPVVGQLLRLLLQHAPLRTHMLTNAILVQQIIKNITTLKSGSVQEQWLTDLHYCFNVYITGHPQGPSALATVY
Assay: cryo-EM structure

B1: human PELP1 (residues 1-642, Rix1 domain) (domain or fragment)
chain: not shown
Question: Does B1 bind?
Answer: binds
